± gives the uncertainty stated by the source.

A short description of the data set: self-splicing fitness, log relative to wild type (ln ratio); higher = more splicing; Tetrahymena group I intron in knt gene, E. coli kanamycin selection, DiMSum; sequences stand for … in CUCUCU…GGAGGGAAAAGUUAUCAGGCAUGCACCUGGUAGCUAGUCUUUAAACCAAUAGAUUGCAUCGGUUUAAAAGGCAAGACCGUCAAAUUGCGGGAAAGGGGUCAACAGCCGUUCAGUACCAAGUCUCAGGGGAAACUUUGAGAUGGCCUUGCAAAGGGUAUGGUAAUAAGCUGACGGACAUGGUCCUAACCACGCAGCCAAGUCCUAAGUCAACAGAUCUUCUGUUGAUAUGGAUGCAGUUCACAGACUAAAUGUCGGUCGGGGAAGAUGUAUUCUUCUCAUAAGAUAUAGUCGGACCUCUCCUUAAUGGGAGCUAGCGGAUGAAGUGAUGCAACACUGGAGCCGCUGGGAACUAAUUUGUAUGCGAAAGUAUAUUGAUUAGUUUUGGAGUACUCGUGGUCG
Summed up:
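Fitness was computed with DiMSum as the error-weighted combination of replicate fold changes, kanamycin versus none, each normalised to wild type. The library randomised all eight intron nucleotides of the P1ex region, with the intron placed in the knt kanamycin-resistance gene on pET-22b(+) in E. coli BL21(DE3). Six replicate transformations were grown overnight at 37°C or 30°C on LB agar with or without 25 μg/mL kanamycin, plus 100 μg/mL carbenicillin, 50 μM IPTG and 0.2% rhamnose. Pooled colonies were amplicon-sequenced on an Illumina HiSeq 2500.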

As to CGUGAGCAAUAUUACGUCCG, the “self-splicing fitness (ln)” value reads like this: (30 °C) -1.95 ± 0.16; (37 °C) -0.866 ± 0.22.
In the case of GGCAAGCAAUAUUACGCAGA, the “self-splicing fitness (ln)” value reads like this: (30 °C) -1.23 ± 0.15; (37 °C) -0.852 ± 0.16.
CGGUAGCAAUAUUACGUCUA: the “self-splicing fitness (ln)” value is -0.754 ± 0.073 (30 °C) and -0.163 ± 0.081 (37 °C).
For UUCCAGCAAUAUUACGAAUG, in that order: -3.59 ± 0.19 and -1.75 ± 0.15.
As for AUCUAGCAAUAUUACGAAAU, the “self-splicing fitness (ln)” value runs as follows: (30 °C) -1.81 ± 0.11; (37 °C) -0.899 ± 0.11.
For the sequence UCGUAGCAAUAUUACGGACG, the “self-splicing fitness (ln)” value reads like this: (30 °C) -2.58 ± 0.24; (37 °C) -1.68 ± 0.21.
For CCUAAGCAAUAUUACGCACA, in that order: -4.21 ± 0.46 and -1.2 ± 0.35.
With AUAGAGCAAUAUUACGUGAA, under “37 °C”, the “self-splicing fitness (ln)” value is -1.07 ± 0.25.
As to GGAAAGCAAUAUUACGACAC, the “self-splicing fitness (ln)” value runs as follows: (30 °C) -0.204 ± 0.15; (37 °C) -0.206 ± 0.2.
For the sequence AGGAAGCAAUAUUACGUGCA, the “self-splicing fitness (ln)” value is -1.12 ± 0.11 (30 °C) and -1.32 ± 0.13 (37 °C).
For AGUAAGCAAUAUUACGGCAU, in that order: -0.486 ± 0.11 and -0.411 ± 0.12.
Consider GCCAAGCAAUAUUACGCGGC, for which the “self-splicing fitness (ln)” value reads like this: (30 °C) -3.04 ± 0.22; (37 °C) -3.03 ± 0.43.
For UAUAAGCAAUAUUACGCCAU, in that order: -1.19 ± 0.23 and -2.11 ± 0.28.
For GCCAAGCAAUAUUACGAUUC, in that order: -0.96 ± 0.062 and -0.482 ± 0.082.
As for UUCGAGCAAUAUUACGUGCG, the “self-splicing fitness (ln)” value was -3.18 ± 0.23 (30 °C) and -2.18 ± 0.26 (37 °C).
For CUUGAGCAAUAUUACGCUGA, in that order: -2.33 ± 0.25 and -1.9 ± 0.23.
With CCCAAGCAAUAUUACGUUCU, the “self-splicing fitness (ln)” value (30 °C) was -3.36 ± 0.14 and the “self-splicing fitness (ln)” value (37 °C) is -3.5 ± 0.22.
Take CCAAAGCAAUAUUACGAAUU: the “self-splicing fitness (ln)” value (30 °C) is -3.58 ± 0.15 and the “self-splicing fitness (ln)” value (37 °C) was -3.46 ± 0.19.
UUCUAGCAAUAUUACGCGUA: the “self-splicing fitness (ln)” value was -1.15 ± 0.25 (30 °C) and -0.575 ± 0.21 (37 °C).
For UGUAAGCAAUAUUACGUCGU, in that order: -3.66 ± 0.24 and -1.97 ± 0.18.
On to CAGUAGCAAUAUUACGGACG, for which the “self-splicing fitness (ln)” value (30 °C) is -0.216 ± 0.11 and the “self-splicing fitness (ln)” value (37 °C) came out at 0.702 ± 0.16.
With UCUUAGCAAUAUUACGCACG, the “self-splicing fitness (ln)” value reads like this: (30 °C) -1.56 ± 0.29; (37 °C) -1.47 ± 0.34.
For GCAUAGCAAUAUUACGUUAU, in that order: -2.61 ± 0.16 and -3.08 ± 0.27.
GAAGAGCAAUAUUACGUUGC: the “self-splicing fitness (ln)” value runs as follows: (30 °C) -3.04 ± 0.28; (37 °C) -2.25 ± 0.27.
CAUUAGCAAUAUUACGAACG: the “self-splicing fitness (ln)” value amounted to 0.479 ± 0.09 (30 °C) and 0.736 ± 0.099 (37 °C).
In the case of GUCUAGCAAUAUUACGGAUC, the “self-splicing fitness (ln)” value by setting is: (30 °C) -1.99 ± 0.28; (37 °C) -1.85 ± 0.27.
As to CACGAGCAAUAUUACGCAAA, the “self-splicing fitness (ln)” value by setting is: (30 °C) -3.96 ± 0.33; (37 °C) -2.08 ± 0.19.
Take CUCUAGCAAUAUUACGUUGU: the “self-splicing fitness (ln)” value by setting is: (30 °C) -3.36 ± 0.2; (37 °C) -3.68 ± 0.31.
With CAUUAGCAAUAUUACGGGCG, the “self-splicing fitness (ln)” value is, setting by setting: (30 °C) -0.183 ± 0.092; (37 °C) 0.436 ± 0.098.
For CUCAAGCAAUAUUACGUUGG, in that order: -2.93 ± 0.12 and -1.5 ± 0.13.
Consider CAACAGCAAUAUUACGCGUA, for which the “self-splicing fitness (ln)” value is -1.55 ± 0.093 (30 °C) and -1.06 ± 0.088 (37 °C).
For the sequence AUUUAGCAAUAUUACGUGGC, the “self-splicing fitness (ln)” value is, setting by setting: (30 °C) -3.57 ± 0.43; (37 °C) -1.69 ± 0.32.
For CAAAAGCAAUAUUACGCAUU, the “self-splicing fitness (ln)” value reads like this: (30 °C) -3.45 ± 0.18; (37 °C) -3.29 ± 0.23.
For GCGAAGCAAUAUUACGCGAC, in that order: -1.88 ± 0.17 and -1.1 ± 0.19.
Turning to UAUUAGCAAUAUUACGAGAU, the “self-splicing fitness (ln)” value (37 °C) was -2.01 ± 0.34.
As for UCAAAGCAAUAUUACGCUUG, the “self-splicing fitness (ln)” value reads like this: (30 °C) -2.27 ± 0.14; (37 °C) -2.58 ± 0.26.
For UAACAGCAAUAUUACGGCGC, in that order: -2.5 ± 0.13 and -1.44 ± 0.13.
Take UGGGAGCAAUAUUACGAUAG: under “30 °C”, the “self-splicing fitness (ln)” value is -3.25 ± 0.32.
As to CGUGAGCAAUAUUACGUAUA, the “self-splicing fitness (ln)” value runs as follows: (30 °C) -2.71 ± 0.18; (37 °C) -1.55 ± 0.18.
As for GAGAAGCAAUAUUACGGGCG, the “self-splicing fitness (ln)” value runs as follows: (30 °C) -1.52 ± 0.14; (37 °C) -0.609 ± 0.13.
UAAGAGCAAUAUUACGGUGU: the “self-splicing fitness (ln)” value is -2.19 ± 0.14 (30 °C) and -3.27 ± 0.47 (37 °C).
For GUUAAGCAAUAUUACGAAAU, the “self-splicing fitness (ln)” value is, setting by setting: (30 °C) -1.41 ± 0.16; (37 °C) -2.16 ± 0.24.
For UUGAAGCAAUAUUACGGAAU, in that order: -3.36 ± 0.14 and -1.15 ± 0.12.
For AUCCAGCAAUAUUACGUUAG, in that order: -3.22 ± 0.17 and -3.56 ± 0.35.
Regarding GGUAAGCAAUAUUACGCGUA, the “self-splicing fitness (ln)” value is -0.32 ± 0.21 (30 °C) and -0.425 ± 0.15 (37 °C).
Take UUCGAGCAAUAUUACGACUA: the “self-splicing fitness (ln)” value (30 °C) was 0.544 ± 0.39 and the “self-splicing fitness (ln)” value (37 °C) is -1.15 ± 0.24.
GCUCAGCAAUAUUACGUAAG: the “self-splicing fitness (ln)” value was -0.791 ± 0.043 (30 °C) and -0.374 ± 0.067 (37 °C).
As for UCUGAGCAAUAUUACGCGAA, the “self-splicing fitness (ln)” value (37 °C) was -1.8 ± 0.25.
For the sequence AACGAGCAAUAUUACGUUCC, the “self-splicing fitness (ln)” value reads like this: (30 °C) -3.09 ± 0.36; (37 °C) -2.41 ± 0.3.
For UCCCAGCAAUAUUACGGUGG, in that order: -3.65 ± 0.15 and -2.5 ± 0.15.
For GUCAAGCAAUAUUACGAAUA, in that order: -1.85 ± 0.16 and -1.42 ± 0.14.
Consider UUAUAGCAAUAUUACGUAUU, for which, for the setting “37 °C”, the “self-splicing fitness (ln)” value was -2.08 ± 0.25.
For UAGUAGCAAUAUUACGUUAU, the “self-splicing fitness (ln)” value (30 °C) was -3.5 ± 0.43 and the “self-splicing fitness (ln)” value (37 °C) was -3.13 ± 0.4.
For GCGAAGCAAUAUUACGUGGG, the “self-splicing fitness (ln)” value was -3.87 ± 0.24 (30 °C) and -2.67 ± 0.26 (37 °C).
Regarding UUAUAGCAAUAUUACGGCUC, the “self-splicing fitness (ln)” value runs as follows: (30 °C) -2.3 ± 0.26; (37 °C) -0.637 ± 0.26.
For GACGAGCAAUAUUACGUCGC, in that order: -3.25 ± 0.47 and -0.634 ± 0.35.
For UGACAGCAAUAUUACGCUGA, in that order: -2.69 ± 0.17 and -2.08 ± 0.24.
AAAAAGCAAUAUUACGUCCA: the “self-splicing fitness (ln)” value runs as follows: (30 °C) -0.18 ± 0.076; (37 °C) 0.113 ± 0.11.
As for CAACAGCAAUAUUACGUCAG, the “self-splicing fitness (ln)” value (30 °C) is -0.334 ± 0.053 and the “self-splicing fitness (ln)” value (37 °C) is -0.55 ± 0.066.
For the sequence CUGAAGCAAUAUUACGUGUG, the “self-splicing fitness (ln)” value (30 °C) was -0.196 ± 0.046 and the “self-splicing fitness (ln)” value (37 °C) is -0.0989 ± 0.067.
For GAAAAGCAAUAUUACGGAGG, in that order: -2.71 ± 0.14 and -1.73 ± 0.18.
Regarding AGGUAGCAAUAUUACGCUGC, the “self-splicing fitness (ln)” value is, setting by setting: (30 °C) -3.88 ± 0.042; (37 °C) -2.79 ± 0.054.
For AGCGAGCAAUAUUACGCAAC, in that order: -3.6 ± 0.27 and -2.63 ± 0.21.
In the case of AUGCAGCAAUAUUACGAUUA, the “self-splicing fitness (ln)” value reads like this: (30 °C) -1.32 ± 0.1; (37 °C) -0.923 ± 0.1.
For CCGGAGCAAUAUUACGAUGG, in that order: -3.6 ± 0.48 and -3 ± 0.43.
AGCUAGCAAUAUUACGUGGC: the “self-splicing fitness (ln)” value (37 °C) is -2.27 ± 0.26.
For the sequence CAGAAGCAAUAUUACGUUGU, the “self-splicing fitness (ln)” value reads like this: (30 °C) -3.38 ± 0.13; (37 °C) -2.81 ± 0.15.
As for GCAAAGCAAUAUUACGGAUA, the “self-splicing fitness (ln)” value is, setting by setting: (30 °C) -2.49 ± 0.13; (37 °C) -1.6 ± 0.1.
For GGACAGCAAUAUUACGCGGA, in that order: -0.693 ± 0.081 and 0.416 ± 0.074.
In the case of CCGUAGCAAUAUUACGGGCC, the “self-splicing fitness (ln)” value (30 °C) was -3.55 ± 0.25 and the “self-splicing fitness (ln)” value (37 °C) was -2.83 ± 0.32.
In the case of AGCGAGCAAUAUUACGUCGU, the “self-splicing fitness (ln)” value was -3.82 ± 0.43 (30 °C) and -2.18 ± 0.36 (37 °C).
For CUCCAGCAAUAUUACGUAAG, in that order: -0.512 ± 0.053 and 0.0902 ± 0.076.
On to UAUAAGCAAUAUUACGUUCG, for which the “self-splicing fitness (ln)” value (30 °C) is -0.846 ± 0.12 and the “self-splicing fitness (ln)” value (37 °C) was 0.0904 ± 0.17.
With UAUAAGCAAUAUUACGCACC, the “self-splicing fitness (ln)” value is, setting by setting: (30 °C) -1.82 ± 0.3; (37 °C) -1.42 ± 0.3.
For the sequence GGCGAGCAAUAUUACGUACC, the “self-splicing fitness (ln)” value (30 °C) was -1.44 ± 0.25.
Take GUCCAGCAAUAUUACGAUUA: the “self-splicing fitness (ln)” value by setting is: (30 °C) -0.767 ± 0.074; (37 °C) -0.551 ± 0.077.
On to CGCCAGCAAUAUUACGGAAG, for which the “self-splicing fitness (ln)” value was -1.44 ± 0.064 (30 °C) and -0.526 ± 0.077 (37 °C).

(Values after the supplement of paper PMC7877785.)
